Assay results taken from patent publication US7125658B2, “Small protein that interacts with a ribonucleotide reductase subunit and uses thereof” (The Trustees of Columbia University in the City of New York, priority 1998, dated 2006).

How the values were obtained:
[1] = molecular target: T1, Recombinant mouse ribonucleotide reductase R1 protein (mouse, UniProt P07742 1-792); experiment: BIAcore biosensor, mouse R1 protein alone at 0.1 mg/ml over immobilized Sml1p, prolonged injection, bulk effect not subtracted
T1 construct: also called mouse R1 protein
T1 sequence (looked up): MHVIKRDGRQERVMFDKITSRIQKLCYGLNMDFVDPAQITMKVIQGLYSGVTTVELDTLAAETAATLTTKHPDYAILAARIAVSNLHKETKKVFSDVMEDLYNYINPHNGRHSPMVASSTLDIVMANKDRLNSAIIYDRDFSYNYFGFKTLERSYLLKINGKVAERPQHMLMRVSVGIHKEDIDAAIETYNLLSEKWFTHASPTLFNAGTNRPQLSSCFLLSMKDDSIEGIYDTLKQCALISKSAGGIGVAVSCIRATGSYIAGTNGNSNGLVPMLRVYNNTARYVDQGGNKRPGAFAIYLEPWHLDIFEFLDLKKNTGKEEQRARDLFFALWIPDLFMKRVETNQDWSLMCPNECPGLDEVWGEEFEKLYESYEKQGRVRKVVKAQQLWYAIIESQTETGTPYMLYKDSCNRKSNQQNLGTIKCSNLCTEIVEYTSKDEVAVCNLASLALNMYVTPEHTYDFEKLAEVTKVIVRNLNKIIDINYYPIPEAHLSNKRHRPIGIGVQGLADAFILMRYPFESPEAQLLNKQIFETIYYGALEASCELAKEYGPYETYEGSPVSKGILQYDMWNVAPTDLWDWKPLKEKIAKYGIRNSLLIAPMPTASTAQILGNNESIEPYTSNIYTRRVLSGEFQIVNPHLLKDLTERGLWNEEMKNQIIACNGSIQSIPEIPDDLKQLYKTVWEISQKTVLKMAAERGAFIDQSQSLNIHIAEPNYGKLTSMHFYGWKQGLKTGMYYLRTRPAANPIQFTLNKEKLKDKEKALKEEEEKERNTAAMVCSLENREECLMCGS

[2] = molecular target: T2, Recombinant mouse ribonucleotide reductase R2 protein (mouse, UniProt P11157 1-390); experiment: BIAcore, immobilized Sml1p
T2 construct: also called mouse R2 protein
T2 sequence (looked up): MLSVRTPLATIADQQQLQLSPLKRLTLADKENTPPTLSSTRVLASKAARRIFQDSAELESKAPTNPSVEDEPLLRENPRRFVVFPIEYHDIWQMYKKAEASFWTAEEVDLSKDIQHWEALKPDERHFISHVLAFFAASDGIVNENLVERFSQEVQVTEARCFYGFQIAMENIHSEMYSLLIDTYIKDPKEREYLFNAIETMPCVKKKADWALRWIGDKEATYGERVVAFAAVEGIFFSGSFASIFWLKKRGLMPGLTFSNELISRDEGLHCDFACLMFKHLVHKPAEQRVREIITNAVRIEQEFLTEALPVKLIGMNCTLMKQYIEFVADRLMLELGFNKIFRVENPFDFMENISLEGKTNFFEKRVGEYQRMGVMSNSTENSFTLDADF

[3] = molecular target: T3, Yeast Rnr2p/Rnr4p heterodimer (yeast (Saccharomyces cerevisiae), UniProt P09938 1-399; P49723 1-345); experiment: BIAcore, immobilized Sml1p
T3 construct: Coexpressed and purified as a heterodimer; also called R2/R4 heterodimer
T3 sequence (looked up) 1: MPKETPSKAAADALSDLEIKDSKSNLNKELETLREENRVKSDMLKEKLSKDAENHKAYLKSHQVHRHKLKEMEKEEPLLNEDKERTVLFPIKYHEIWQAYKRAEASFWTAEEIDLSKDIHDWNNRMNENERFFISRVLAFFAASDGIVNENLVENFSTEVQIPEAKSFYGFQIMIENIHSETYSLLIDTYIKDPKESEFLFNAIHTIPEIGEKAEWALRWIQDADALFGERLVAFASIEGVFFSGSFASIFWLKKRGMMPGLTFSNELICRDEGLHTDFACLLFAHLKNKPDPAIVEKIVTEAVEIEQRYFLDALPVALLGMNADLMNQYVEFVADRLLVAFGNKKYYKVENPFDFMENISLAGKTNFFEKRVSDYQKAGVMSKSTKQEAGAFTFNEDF
T3 sequence (looked up) 2: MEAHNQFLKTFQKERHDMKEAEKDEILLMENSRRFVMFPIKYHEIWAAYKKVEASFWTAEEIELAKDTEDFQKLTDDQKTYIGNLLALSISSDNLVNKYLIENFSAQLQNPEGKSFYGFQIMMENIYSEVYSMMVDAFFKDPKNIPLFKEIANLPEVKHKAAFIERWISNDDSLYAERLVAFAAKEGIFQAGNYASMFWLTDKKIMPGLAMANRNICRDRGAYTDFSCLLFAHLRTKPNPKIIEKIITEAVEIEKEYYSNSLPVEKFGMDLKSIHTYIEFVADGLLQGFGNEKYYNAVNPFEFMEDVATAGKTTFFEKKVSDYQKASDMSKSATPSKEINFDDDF

bovine serum albumin = molecular target: T4, bovine serum albumin (bovine, UniProt P02769 25-607); experiment: BIAcore, immobilized Sml1p
T4 construct: Control; also called BSA

mouse RNR = molecular target: T5, mouse RNR (Mus musculus, UniProt P07742); experiment: in vitro mouse ribonucleotide reductase CDP assay; type: biochemical; details: 300 fold molar excess of Sml1p (36 μg), 1 μg R1, increasing R2; dependent on R1 to R2 ratio
T5 construct: made in house; host or cells: E. coli BL21 (DE3)pLysS, pET3a
T5 sequence (P07742 1-792): T1 sequence (looked up)
Procedure: FIG. 13 Inhibition of mouse RNR by the Sml1p. A series of tubes containing mouse RNR (1 μg of R1 protein and the indicated amounts of R2 protein) were incubated at 37° C. for 30 minutes as described in FIG. 9 in the absence (ã) or in the presence of 36 μg of Sml1p (o).
Inhibition of mouse ribonucleotide reductase by the Sml1protein. The effects of Sml1 protein on pure recombinant mouse ribonucleotide reductase were tested in a CDP assay in the presence of ATP as a positive effector (FIG. 13). In the figure, RNR activity in the presence of a fixed amount of R1 protein, and in the presence or absence of a 300 fold molar excess of Sml1p, are plotted against increasing concentrations of the R2 protein.

T4 sequence (P02769 25-607 limits assumed): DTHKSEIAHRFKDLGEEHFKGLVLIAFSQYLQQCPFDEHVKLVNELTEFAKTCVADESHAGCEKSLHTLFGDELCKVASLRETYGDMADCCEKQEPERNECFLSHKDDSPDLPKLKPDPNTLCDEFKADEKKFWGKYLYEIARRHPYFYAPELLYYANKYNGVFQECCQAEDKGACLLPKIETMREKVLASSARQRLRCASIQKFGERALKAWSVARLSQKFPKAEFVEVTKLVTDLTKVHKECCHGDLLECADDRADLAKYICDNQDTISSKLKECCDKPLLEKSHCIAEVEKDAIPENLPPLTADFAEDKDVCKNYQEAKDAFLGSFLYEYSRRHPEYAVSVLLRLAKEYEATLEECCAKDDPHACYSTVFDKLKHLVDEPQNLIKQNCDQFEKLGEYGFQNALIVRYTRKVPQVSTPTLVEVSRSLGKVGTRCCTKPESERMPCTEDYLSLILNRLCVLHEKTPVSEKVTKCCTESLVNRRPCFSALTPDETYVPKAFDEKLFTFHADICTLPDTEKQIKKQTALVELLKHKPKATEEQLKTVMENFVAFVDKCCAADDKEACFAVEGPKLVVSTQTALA

B1: Recombinant yeast Sml1 protein (other)
chain: MQNSQDYFYAQNRCQQQQAPSTLRTVTMAEFRRVPLPPMAEVPMLSTQNSMGSSASASASSLEMWEKDLEERLNSIDHDMNNNKFGSGELKSMFNQGKVEEMDF
notes: Immobilized on the BIAcore chip in the biosensor experiments; also called YML058W product
[1]
  binding result: binds
[2]
  binding result: no binding
[3]
  binding result: no binding (tested: 0.1 mg/ml)
Bovine serum albumin
  binding result: no binding (tested: 0.1 mg/ml)

B2: Sml1p: 104 amino acid yeast protein encoded by YML058w (SML1) that binds Rnr1 and inhibits ribonucleotide reductase; recombinant, expressed in E. coli (protein)
chain: B1 chain
Mouse RNR
  inhibition of mouse RNR compared with yeast RNR: less pronounced
